The chains are these.
B1: Aspergillus niger glucose dehydrogenase (FAD-GDH) Ang-n2 variant E195K/Q196E/G73A, SEQ ID NO: 2 (Aspergillus niger CBS 513.88; E195K/G73A/Q196E) (protein)
chain: YDFVIVGGGTSGLVVANRLSELSDVTVAVIEAGESALNNFNVSNVMAYSTAFGTEVDWAYQTENQTYAGGLQQTIRAGKALGGTSTINGMSYTRAEDVQIDNWEVLGNDGWNWKNLFQYYKKSEGFQVPTKDQIAHGASYNASYHGLNGPLKVGWPNSMTNSSVFPVLKETFEKLGVQYNPDSEGGKMVGFTVHPDTLDREMNVREDAARAYYWPYEARSNLKIISNTRANKVIWANTTQGEAVAVGIEVTNAYGTETIYADKEVILSAGALRSPAILELSGIGNPDVLNKHNIPVKVNITTVGENLQDQTNNALSWEGVDTLTGLATFSVLPSVNQLYGDNVTALASYVKSQLASYAKTVASASNGAVKEANLVEAFERQYDLIFNSQVPYTEVVFAPSGNSFAVEYWPLLPFSRGSVHIQSANASDYPAINPNYFMFDQDAEAQVTVAQYIRKALGTAPLNSLVGEEVSPGLDVLPASASSATWTKWVKENYRTNYHPVGTTSMLPREKGGVVSPELKVYGTKNVRVVDASVLPFQLCGHLTSTLYAVAERASDLIKESY
notes: E. coli BL21(DE3), crude extract, small-scale culture
B2: Aspergillus niger glucose dehydrogenase (FAD-GDH) Ang-n2 variant T522S, SEQ ID NO: 2 (Aspergillus niger CBS 513.88; T522S) (protein)
chain: B1 chain with A47G, K169E, E170Q, T496S
notes: pET30c, E. coli BL21(DE3), crude extract
B3: Aspergillus niger glucose dehydrogenase (FAD-GDH) Ang-n2 variant E195K/Q196R, SEQ ID NO: 2 (Aspergillus niger CBS 513.88; E195K/Q196R) (protein)
chain: B1 chain with A47G, E170R
notes: as for B2
B4: Aspergillus niger glucose dehydrogenase (FAD-GDH) Ang-n2 variant E195K/Q196D, SEQ ID NO: 2 (Aspergillus niger CBS 513.88; E195K/Q196D) (protein)
chain: B1 chain with A47G, E170D
notes: as for B2
B5: Aspergillus niger glucose dehydrogenase (FAD-GDH) Ang-n3 variant E195K/Q196E, SEQ ID NO: 2 (Aspergillus niger CBS 513.88; E195K/Q196E) (protein)
chain: B1 chain with A47G
notes: pET30c, E. coli BL21(DE3), dialysed crude enzyme
B6: Aspergillus niger glucose dehydrogenase (FAD-GDH) Ang-n2 variant N368K, SEQ ID NO: 2 (Aspergillus niger CBS 513.88; N368K) (protein)
chain: B1 chain with A47G, K169E, E170Q, N342K
notes: as for B2
B7: Aspergillus niger glucose dehydrogenase (FAD-GDH) Ang-n3, SEQ ID NO: 2 (26 N-terminal residues deleted, Met-Asn-Thr-Thr-Thr- added) (Aspergillus niger CBS … (protein)
chain: B1 chain with A47G, K169E, E170Q
notes: otherwise wild type; pET30c, E. coli BL21(DE3), dialysed crude enzyme
B8: Aspergillus niger glucose dehydrogenase (FAD-GDH) Ang-n2 variant N368K/T522S, SEQ ID NO: 2 (Aspergillus niger CBS 513.88; N368K/T522S) (protein)
chain: B1 chain with A47G, K169E, E170Q, N342K, T496S
notes: as for B2
B9: Aspergillus niger glucose dehydrogenase (FAD-GDH) Ang-n2 variant E195K/Q196E/N368K/T522S, SEQ ID NO: 2 (Aspergillus niger CBS 513.88; E195K/N368K/Q196E/T522S) (protein)
chain: B1 chain with A47G, N342K, T496S
notes: as for B2
B10: Aspergillus niger glucose dehydrogenase (FAD-GDH) Ang-n1 variant E195K/Q196E, SEQ ID NO: 2 (Aspergillus niger CBS 513.88; E195K/Q196E) (protein)
chain: MDSPAHYDFVIVGGGTSGLVVANRLSELSDVTVAVIEAGESALNNFNVSNVMGYSTAFGTEVDWAYQTENQTYAGGLQQTIRAGKALGGTSTINGMSYTRAEDVQIDNWEVLGNDGWNWKNLFQYYKKSEGFQVPTKDQIAHGASYNASYHGLNGPLKVGWPNSMTNSSVFPVLKETFEKLGVQYNPDSEGGKMVGFTVHPDTLDREMNVREDAARAYYWPYEARSNLKIISNTRANKVIWANTTQGEAVAVGIEVTNAYGTETIYADKEVILSAGALRSPAILELSGIGNPDVLNKHNIPVKVNITTVGENLQDQTNNALSWEGVDTLTGLATFSVLPSVNQLYGDNVTALASYVKSQLASYAKTVASASNGAVKEANLVEAFERQYDLIFNSQVPYTEVVFAPSGNSFAVEYWPLLPFSRGSVHIQSANASDYPAINPNYFMFDQDAEAQVTVAQYIRKALGTAPLNSLVGEEVSPGLDVLPASASSATWTKWVKENYRTNYHPVGTTSMLPREKGGVVSPELKVYGTKNVRVVDASVLPFQLCGHLTSTLYAVAERASDLIKESY
notes: as for B2
B11: Aspergillus niger glucose dehydrogenase (FAD-GDH) Ang-n1, wild type, SEQ ID NO: 2 (20 N-terminal residues deleted, Ala21 substituted by Met) (Aspergillus niger … (protein)
chain: B10 chain with K175E, E176Q

Changes are numbered by the printed parent chain. In names and notes the source's numbering stands.

Substrate in the first data set: OC[C@H]1OC(O)[C@H](O)[C@@H](O)[C@@H]1O
The data set is described as follows: cells, lysate or membranes named. Conditions: other: 3 ml culture, crude enzyme, glucose 1-40 mM, pH 6.5, DCIP/PMS. The class given is biochemical, Aspergillus niger.
The term Km denotes the concentration of substrate that gives half-maximal velocity. Consider B1, for which the Km worked out at 5.5 mM and the Vmax is given as 5.0 U/mg protein.

The same data set, now with this note: other: 60 ml culture, crude enzyme, glucose 1-40 mM, pH 6.5, DCIP/PMS, 20.0 °C.
Regarding B2, the Km is listed as 2.5 mM and the Vmax worked out at 3.4 µmol/min/mg.
Consider B3, for which the Michaelis constant (Km) amounted to 2.5 mM and the Vmax was 4.3 µmol/min/mg.
Regarding B4, the Michaelis constant (Km) came to 2.9 mM and the Vmax is 5.1 µmol/min/mg.
On to B5, for which the Km was 2.2 mM and the Vmax turned out to be 4.5 µmol/min/mg.
For B6, the Michaelis-Menten constant (Km) is reported as 4.6 mM and the Vmax was determined as 0.7 µmol/min/mg.
Take B7: the Michaelis constant (Km) was determined as 3.7 mM and the Vmax is 0.7 µmol/min/mg.
B8: the Michaelis-Menten constant (Km) worked out at 3.4 mM and the Vmax is 5.3 µmol/min/mg.
In the same order, the values of B9 are 3.2 mM and 6.1 µmol/min/mg.
Take B10: the Km worked out at 2.8 mM and the Vmax amounted to 2.5 µmol/min/mg.

Substrate in a further data set: OC[C@H]1OC(O)[C@H](O)[C@@H](O)[C@@H]1O
The data set is described as follows: cells, lysate or membranes named. The note with it: other: 60 ml culture, crude enzyme, glucose 1-40 mM, pH 6.5, DCIP/PMS, 20.0 °C.
With B11, the Km is on record as 3.6 mM.

These data come from patent US9512459B2 (priority 2011, dated 2016).
